From patent US12428633B2, “Inducible dimerization of recombinases” (TRUSTEES OF BOSTON UNIVERSITY, priority 2016, dated 2025)

Each molecule was assayed on VloxP (assay: Gibberellin ester (GIB)-induced split-VCre rejoinder, GFP reporter). Conditions: GAI/GID1 CIDD pair; with vs without GIB.
Type: cell-based, human
Procedure: FIGS. 42A-42B show results of gene expression of different split-recombinase Cre (SEQ ID NO: 74) or VCre fragments (SEQ ID NO: 16).
(§1) DNA was transfected into the human embryonic kidney cell line (HEK293FT) using a polyethylenimine (PEI) protocol. Cells were plated onto 48-(2504) or 96-well (1004) plates the day prior to transfection (200,000 cells/mL), such that the cells were 50-70% confluent the day of transfection. Cells were kept in a humidified incubator at 37° C. and 5% CO2 and maintained in DMEM medium (Corning) with 10% Heat Inactivated Fetal Bovine Serum (Life Technologies), 50 U.I./mL penicillin/50 μg/mL streptomycin (Corning), 2 mM glutamine (Corning) and 1 mM sodium pyruvate (Lonza). PEI stocks were made from linear polyethylenimine (Polysciences 23966-2) and were dissolved at a concentration of 0.323 g/L in deionized water with the assistance of concentrated hydrochloric acid and sodium hydroxide and then filtered sterilized (0.24 μm). PEI stocks were stored at −80° C. until use and warmed to room temperature prior to usage. For 48-well plate transfections, DNA (1000 ng, 50 ng/4) was dissolved and brought up to a volume of 50 μL using 0.15 M sodium chloride (NaCl, Fisher Scientific). DNA-NaCl solutions were then mixed with 50 μL of a PEI-NaCl mixture (8 uL PEI: 42 uL NaCl). These solutions were then incubated at room temperature for ten minutes and 25 μL was carefully dropped into individual wells of HEK293FT cells (250 ng DNA/well). Similarly, for 96-well plate transfections, DNA (500 ng, 50 ng/4) was dissolved and brought up to a volume of 25 μL using 0.15 M sodium chloride (NaCl). DNA-NaCl solutions were then mixed with 25 μL of a PEI-NaCl (4 uL PEI: 21 uL NaCl) mixture. These solutions were then incubated at room temperature for ten minutes and 10 μL was carefully dropped into individual wells of HEK293FT cells (100 ng DNA/well). Electronic space-adjustable multichannel pipettors (Integra Biosciences) were utilized throughout the process for rapid aspiration and dispensing of molecular and cellular reagents. A Countess II image-based cell counter (Life Technologies) was used for measuring human cell population densities.
Rapamycin analog (Clontech A/C heterodimerizer AP21967, 0.5 mM) was used as a 1000× stock for chemical induction experiments. […]
(§2) Two days post-transfection and after trypsinization (0.05% Trypsin/0.53 mM EDTA, Corning) and resuspension, all HEK293FT cell populations were analyzed using a Becton Dickinson (BD) LSRFortessa SORP flow cytometer with HTS. […]

Molecule	GFP expression of split-VCre by split site (S)
VCre 172: VCre (SEQ ID NO: 16) split into aa 1-172 and 173-380, fused to CIDD pair (protein, split at 172/173; CIDD pair fusions lack entries) MIENQLSLLGDFSGVRPDDVKTAIQAAQKKGINVAENEQFKAAFEHLLNEFKKREERYSPNTLRRLESAWTCFVDWCLANHRHSLPATPDTVEAFFIERAEELHRNTLSVYRWAISRVHRVAGCPDPCLDIYVEDRLKAIARKKVREGEAVKQASPFNEQHLLKLTSLWYRSDKLLLRRNLALLAVAYESMLRASELANIRVSDMELAGDGTAILTIPITKTNHSGEPDTCILSQDVVSLLMDYTEAGKLDMSSDGFLFVGVSKHNTCIKPKKDKQTGEVLHKPITTKTVEGVFYSAWETLDLGRQGVKPFTAHSARVGAAQDLLKKGYNTLQIQQSGRWSSGAMVARYGRAILARDGAMAHSRVKTRSAPMQWGKDEKD	result in GFP expression in the presence of GIB
VCre 82: VCre (SEQ ID NO: 16) split into aa 1-82 and 83-380, fused to CIDD pair (protein, split at 82/83; CIDD pair fusions lack entries) MIENQLSLLGDFSGVRPDDVKTAIQAAQKKGINVAENEQFKAAFEHLLNEFKKREERYSPNTLRRLESAWTCFVDWCLANHRHSLPATPDTVEAFFIERAEELHRNTLSVYRWAISRVHRVAGCPDPCLDIYVEDRLKAIARKKVREGEAVKQASPFNEQHLLKLTSLWYRSDKLLLRRNLALLAVAYESMLRASELANIRVSDMELAGDGTAILTIPITKTNHSGEPDTCILSQDVVSLLMDYTEAGKLDMSSDGFLFVGVSKHNTCIKPKKDKQTGEVLHKPITTKTVEGVFYSAWETLDLGRQGVKPFTAHSARVGAAQDLLKKGYNTLQIQQSGRWSSGAMVARYGRAILARDGAMAHSRVKTRSAPMQWGKDEKD	result in GFP expression in the presence of GIB
VCre 277: VCre (SEQ ID NO: 16) split into aa 1-277 and 278-380, fused to CIDD pair (protein, split at 277/278; CIDD pair fusions lack entries) MIENQLSLLGDFSGVRPDDVKTAIQAAQKKGINVAENEQFKAAFEHLLNEFKKREERYSPNTLRRLESAWTCFVDWCLANHRHSLPATPDTVEAFFIERAEELHRNTLSVYRWAISRVHRVAGCPDPCLDIYVEDRLKAIARKKVREGEAVKQASPFNEQHLLKLTSLWYRSDKLLLRRNLALLAVAYESMLRASELANIRVSDMELAGDGTAILTIPITKTNHSGEPDTCILSQDVVSLLMDYTEAGKLDMSSDGFLFVGVSKHNTCIKPKKDKQTGEVLHKPITTKTVEGVFYSAWETLDLGRQGVKPFTAHSARVGAAQDLLKKGYNTLQIQQSGRWSSGAMVARYGRAILARDGAMAHSRVKTRSAPMQWGKDEKD	result in GFP expression in the presence of GIB
VCre 269: VCre (SEQ ID NO: 16) split into aa 1-269 and 270-380, fused to CIDD pair (protein, split at 269/270; CIDD pair fusions lack entries) MIENQLSLLGDFSGVRPDDVKTAIQAAQKKGINVAENEQFKAAFEHLLNEFKKREERYSPNTLRRLESAWTCFVDWCLANHRHSLPATPDTVEAFFIERAEELHRNTLSVYRWAISRVHRVAGCPDPCLDIYVEDRLKAIARKKVREGEAVKQASPFNEQHLLKLTSLWYRSDKLLLRRNLALLAVAYESMLRASELANIRVSDMELAGDGTAILTIPITKTNHSGEPDTCILSQDVVSLLMDYTEAGKLDMSSDGFLFVGVSKHNTCIKPKKDKQTGEVLHKPITTKTVEGVFYSAWETLDLGRQGVKPFTAHSARVGAAQDLLKKGYNTLQIQQSGRWSSGAMVARYGRAILARDGAMAHSRVKTRSAPMQWGKDEKD	result in GFP expression in the presence of GIB

Each molecule was assayed on pCAG-FRT-Neo-FRT-GFP reporter (assay: Gibberellin ester (GIB)-induced split-Flp rejoinder, GFP reporter). Conditions: GAI/GID1 CIDD pair; with vs without GIB.
Type: cell-based, human
Procedure: Full length FlpO and split Flp vectors were tested for induction of recombinase activity on a pCAG-FRT-Neo-FRT-GFP reporter with and without the presence of gibberellin ester (GIB).
FIGS. 43A-43E show results of gene expression of different split-recombinase Flp (SEQ ID NO: 1) or B3 fragments (SEQ ID NO: 19). […] FIGS. 43B-43E show the GFP expression levels of different amino acid residue of split sites (S) of Flp amino acid sequence (top; shown in blue) and amino acid residue of split sites (S) of B3 amino acid sequence (below, shown in orange).
as §1, with “A Countess II image-based cell counter (Life Technologies) was used for measuring human cell population densities.” left out
as §2

Molecule	GFP expression of split-Flp by split site (S)
Flp 168: Flp (SEQ ID NO: 1) split into aa 1-168 and 169-423, fused to CIDD pair (protein, fused to CIDD pair) chain 1: MSQFDILCKTPPKVLVRQFVERFERPSGEKIASCAAELTYLCWMITHNGTAIKRATFMSYNTIISNSLSFDIVNKSLQFKYKTQKATILEASLKKLIPAWEFTIIPYNGQKHQSDITDIVSSLQLQFESSEEADKGNSHSKKMLKALLSEGESIWEITEKILNSFEYT chain 2: SRFTKTKTLYQFLFLATFINCGRFSDIKNVDPKSFKLVQNKYLGVIIQCLVTETKTSVSRHIYFFSARGRIDPLVYLDEFLRNSEPVLKRVNRTGNSSSNKQEYQLLKDNLVRSYNKALKKNAPYPIFAIKNGPKSHIGRHLMTSFLSMKGLTELTNVVGNWSDKRASAVARTTYTHQITAIPDHYFALVSRYYAYDPISKEMIALKDETNPIEEWQHIEQLKGSAEGSIRYPAWNGIISQEVLDYLSSYINRRI	result in GFP expression in the presence of GIB
Flp 27: Flp (SEQ ID NO: 1) split into aa 1-27 and 28-423, fused to CIDD pair (protein, fused to CIDD pair) chain 1: MSQFDILCKTPPKVLVRQFVERFERPS chain 2: GEKIASCAAELTYLCWMITHNGTAIKRATFMSYNTIISNSLSFDIVNKSLQFKYKTQKATILEASLKKLIPAWEFTIIPYNGQKHQSDITDIVSSLQLQFESSEEADKGNSHSKKMLKALLSEGESIWEITEKILNSFEYTSRFTKTKTLYQFLFLATFINCGRFSDIKNVDPKSFKLVQNKYLGVIIQCLVTETKTSVSRHIYFFSARGRIDPLVYLDEFLRNSEPVLKRVNRTGNSSSNKQEYQLLKDNLVRSYNKALKKNAPYPIFAIKNGPKSHIGRHLMTSFLSMKGLTELTNVVGNWSDKRASAVARTTYTHQITAIPDHYFALVSRYYAYDPISKEMIALKDETNPIEEWQHIEQLKGSAEGSIRYPAWNGIISQEVLDYLSSYINRRI	result in GFP expression in the presence of GIB
